Experimental findings from US11160869B2 (priority 2019, dated 2021) are described below.

The target of one series is T1, IL-10RA and IL-10RB (Homo sapiens, UniProt Q08334+Q13651).
T1 sequence (Q13651 22-578): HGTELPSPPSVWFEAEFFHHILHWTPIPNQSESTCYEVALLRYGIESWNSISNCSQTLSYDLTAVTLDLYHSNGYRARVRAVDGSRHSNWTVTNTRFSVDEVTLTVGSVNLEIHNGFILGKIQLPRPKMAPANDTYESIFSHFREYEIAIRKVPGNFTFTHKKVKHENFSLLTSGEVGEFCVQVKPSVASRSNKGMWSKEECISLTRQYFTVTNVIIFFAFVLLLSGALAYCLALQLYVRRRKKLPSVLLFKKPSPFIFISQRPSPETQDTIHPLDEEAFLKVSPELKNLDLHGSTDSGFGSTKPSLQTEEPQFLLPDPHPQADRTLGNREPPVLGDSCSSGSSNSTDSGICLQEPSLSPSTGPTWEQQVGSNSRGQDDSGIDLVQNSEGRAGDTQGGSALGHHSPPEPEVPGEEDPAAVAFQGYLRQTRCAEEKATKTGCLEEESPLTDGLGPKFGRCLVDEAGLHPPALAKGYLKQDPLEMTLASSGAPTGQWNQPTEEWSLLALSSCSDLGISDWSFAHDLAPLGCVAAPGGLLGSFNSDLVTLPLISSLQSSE
T1 sequence (Q08334 20-325): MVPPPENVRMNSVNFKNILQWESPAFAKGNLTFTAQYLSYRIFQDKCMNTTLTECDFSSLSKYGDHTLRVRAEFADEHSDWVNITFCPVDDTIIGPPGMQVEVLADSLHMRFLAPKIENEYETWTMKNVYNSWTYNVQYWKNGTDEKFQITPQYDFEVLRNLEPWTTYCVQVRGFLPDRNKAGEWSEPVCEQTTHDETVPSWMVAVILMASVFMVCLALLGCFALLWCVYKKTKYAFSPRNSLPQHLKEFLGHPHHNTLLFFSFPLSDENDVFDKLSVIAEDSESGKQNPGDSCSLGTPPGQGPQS
The series can be described thus: IL-10 receptor dimerization luminescence assay in engineered U2OS cells. The note with it: read-out: EC50, IL-10R dimerization; 6 h.

The test system of series [1] is colonic marker expression. The series can be described thus: Colonic sigmoidoscopy spray in NHP: pro-/anti-inflammatory and tissue repair markers. The class given is in vivo, Macaca fascicularis. The note with it: 1, 3, 10 mg. The procedure: To assess the effect of an IL-10 delivery construct on pro-inflammatory and anti-inflammatory markers the IL-10 delivery construct was delivered to male Macaca fascicularis monkeys (about 5 to about 8 kg) by colonic sigmoidoscopy with a spray nozzle. The IL-10 delivery construct was administered at doses of 1 mg, 3 mg, and 10 mg formulated in albumin.

The nature of series [2]: Single oral capsule dose in NHP: plasma total IL-10. The class given is in vivo, Macaca fascicularis. To be noted: for plasma total IL-10 Tmax: oral. The text has this: IL-10 delivery constructs (SEQ ID NO: 5) and caffeine were filled by weight into size-1 Capsugel V-Cap Hydroxypropyl Methylcellulose (HPMC) capsules, for oral administration. The capsules were then successively coated in a pan spray coater with three layers of polymers. The first and third layer were thin coatings of HPMC, the first to seal the crease where the capsule shells come together, and the third to minimize sticking of the capsules to each other. The second coating layer was comprised of a 50:50 mixture of Eudragit® (Evonik Industries AG) enteric acrylic polymers FS 30 D and L 30 D-55, designed to dissolve and allow the capsule to open at pH 6.5.
The MSD Small Spot IL-10 plate was washed 3 times with PBST before use. Standards were prepared in Diluent 2 (MSD Cat No R51BB), and samples diluted 2-fold in Diluent 2. Standards and diluted samples were added to the assay plate and the plate incubated for 2 hours at room temperature with shaking. The plate was washed 3 times with PBST and 1× SULFO TAG anti-huIL-10. Antibody was added to the plate before incubation for 1 hour at room temperature with shaking. Following a wash step, 2×MSD Read buffer was added to the wells of the plate and the plate is read in the MSD Sector Imager 600 plate reader. The lower limit of detection of each analyte is defined as 2.5 standard deviation above background.
IL-10 delivery construct dosing at multiple fixed doses in non-naïve adult male Macaca fascicularis was conducted by Valley Biosystems (West Sacramento, Calif.). […] Dosing groups are described in TABLE 45.
Animals were fasted until after the 3 hour blood sample collection, when food was given. For dosing, the animals were manually restrained and a bite block placed between the jaws. A pill gun containing the dosing capsule was inserted into the back of the oral cavity and the capsule released. Up to 4 capsules were administered consecutively and a small amount of water given to induce swallowing. Once the administration of the dose was confirmed, the bite block was removed and the head released.
Blood samples were collected in K2EDTA tubes from each animal pre-dose and at 0.5, 1, 2, 3, 4, 5, 6, 7, 8, and 24 hours post-dose. Animals were returned to home cages following the 2-hour sample collection. Following physical restraint, blood samples were collected via direct venous puncture using a cephalic, femoral or saphenous vein, which were processed to plasma and stored frozen at −60° C. until shipment.

The test system of a further series is STAT3. In words: STAT3 phosphorylation in J774.2 macrophage cells.
A further series deals with plasma cytokines, IL-1Ra. The series can be described thus: MSD 10-plex proinflammatory panel and plasma IL-1Ra immunoassay, oxazolone dose-response. Set-up: species or system mice. The note with it: mouse, in vivo. The text has this:
(§1) Plasma cytokines were quantified using the V-plex Proinflammatory Panel 1 Mouse Kit. Plasma IL-1Ra was quantitated by sandwich immunoassay using an antibody pair from the Mouse IL-1Ra/IL-1F3 DuoSet ELISA (R&D Systems #DY480), Streptavidin SULFO-TAG Labeled (MSD #R32AD-1), Multi-Array 96 Plate Pack, SECTOR Plate MSD #L15XA-3 and Read Buffer T (4×) (MSD #R92TC-2). Samples were read on the QuickPlex SQ 120 plate reader (Meso Scale Discovery, Rockville, Md.).

The test system of the next series is plasma cytokines. In words: MSD V-plex Proinflammatory Panel 1 plasma cytokines, oxazolone colitis (Example 14). The format is in vivo, mice. The note with it: 8.45 mg/kg.
Text: as §1

B1: IL-10 delivery construct: recombinant homodimeric fusion protein: N-terminal methionine, cholix386 domain, polyGlySer spacer, recombinant human IL-10 (protein)
chain: MVEEALNIFDECRSPCSLTPEPGKPIQSKLSIPSDVVLDEGVLYYSMTINDEQNDIKDEDKGESIITIGEFATVRATRHYVNQDAPFGVIHLDITTENGTKTYSYNRKEGEFAINWLVPIGEDSPASIKISVDELDQQRNIIEVPKLYSIDLDNQTLEQWKTQGNVSFSVTRPEHNIAISWPSVSYKAAQKEGSRHKRWAHWHTGLALCWLVPMDAIYNYITQQNCTLGDNWFGGSYETVAGTPKVITVKQGIEQKPVEQRIHFSKGNAMSALAAHRVCGVPLETLARSRKPRDLTDDLSCAYQAQNIVSLFVATRILFSHLDSVFTLNLDEQEPEVAERLSDLRRINENNPGMVTQVLTVARQIYNDYVTHHPGLTPEQTSAGAQAGGGGSGGGGSGGGGSPGQGTQSENSCTHFPGNLPNMLRDLRDAFSRVKTFFQMKDQLDNLLLKESLLEDFKGYLGCQALSEMIQFYLEEVMPQAENQDPDIKAHVNSLGENLKTLRLRLRRCHRFLPCENKSKAVEQVKNAFNKLQEKGIYKAMSEFDIFINYIEAYMTMKIRN
modifications: homodimer
For orientation: EC50 means the midpoint of the concentration-response curve. B1: in the series with IL-10RA and IL-10RB, the half-maximal effective concentration (EC50) amounted to 0.971 nM. In addition, in series [1], the “expression of anti-inflammatory markers” value is “increased expression of anti-inflammatory markers”; the “expression of pro-inflammatory markers” value is listed as “decreased expression of pro-inflammatory markers”; the “expression of tissue repair and wound healing biomarkers” value is “increased expression of biomarkers associated with tissue repair and wound healing”. Besides, the “plasma total IL-10 Tmax” value in series [2] (1 mg) is 4 h. For the same molecule, the “plasma total IL-10 Tmax” value in series [2] (4 mg) came to 3 h. Moreover, the “plasma total IL-10 Tmax” value in series [2] (20.5 mg) is 2 h. Besides, the “plasma total IL-10 Tmax” value in series [2] (82 mg) is 2 h. In addition, the “time at which plasma total IL-10 had returned to baseline” value in series [2] (all doses) came out at 6 hours post-dose. In the series with STAT3, the “amplitude of pSTAT3/total STAT3” value is approximately 1.47%. The concentration for a half-maximal effect (EC50) in the series on STAT3 (read-out: EC50, phosphorylation of STAT3, 20 min stimulation) was 0.264 nM. The “plasma cytokines, MSD 10-plex, vs Vehicle” value in the series with plasma cytokines, IL-1Ra is listed as “no significant differences”. Moreover, in the series with plasma cytokines, the “suppression of induction of IL-4 (trend)” value is 62%, the “suppression of induction of IL-6 (trend)” value amounted to 61%, the “suppression of induction of IL-12p70 (trend)” value came to 65% and the “suppression of induction of KC/GRO (trend)” value came out at 51%. Further, in the series with plasma cytokines (p<0.05), the “plasma expression of IL-10 and IL-2 relative to Vehicle” value is reported as “significantly reduced”.
